Laboratory results taken from the supplement of paper PMC10567573.

Assay: protein stability index of a GFP-peptide fusion (GPS, HEK-293T) (PSI 1-6); higher = more stable
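Note: lentivirally expressed fusions sorted by FACS into six bins by GFP to DsRed ratio, PSI derived from sequencing read proportions per bin multiplied by bin number.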

SELGDYDPDECGSDYISEFRFAPN
protein stability index (parent: IOH6638_40, c terminus: a fixed tail appended): 1.93

IMALVAAILLLVIIILIVMKYRT
protein stability index (parent: IOH7463_24, c terminus: native): 2.83

YHSQDRYEFSSHITRGEHRFHMS
protein stability index (parent: IOH9679_77, c terminus: native): 2.09

HTGLKPYECGVCAKKFMWRDSFMR
protein stability index (parent: IOH10718_90, c terminus: a fixed tail appended): 2.3

RDPFECNMCGYHSQDRYEFSSHIT
protein stability index (parent: IOH9679_75, c terminus: a fixed tail appended): 1.89

VKKSCWTEEEDRIICEAHKVLGNR
protein stability index (parent: IOH6886_23, c terminus: a fixed tail appended): 3.18

YHTGKTPFVCPECGQPCSQKSGLI
protein stability index (parent: IOH7272_62, c terminus: a fixed tail appended): 1.66

ELKTFRLKTRSWAGERSRRELCSR
protein stability index (parent: IOH6456_93, c terminus: a fixed tail appended): 3.35

LVAHQRYHTGKTPFVCPECGQPCS
protein stability index (parent: IOH7272_61, c terminus: a fixed tail appended): 3.29

LDMDEGTLSFIVDGQYLGVAFRGL [SPSB4 WT]
protein stability index (parent: IOH6956_31, c terminus: a fixed tail appended): 2.49

GSKFRYSGRTQAQTRRASALIDRP
protein stability index (parent: IOH6638_68, c terminus: a fixed tail appended): 3.09

RPFDCPVCNKKFKMKHHLTEHMKT
protein stability index (parent: IOH10718_86, c terminus: a fixed tail appended): 2.37

HRRGLGVDSKPELQRVLEHRRRNQ
protein stability index (parent: IOH10203_10, c terminus: a fixed tail appended): 3.91

GPGFHAGTSALWRHLRSAHRRELE
protein stability index (parent: IOH6801_14, c terminus: a fixed tail appended): 2.28

YHNSPAYLAYINAKSRAEAALEEE [SMARCE1 WT]
protein stability index (parent: IOH7424_23, c terminus: a fixed tail appended): 2.1

TSGKRYVYRFVCDLQNLLGFTPEE [ETS2 WT]
protein stability index (parent: IOH10422_73, c terminus: a fixed tail appended): 2.7

EHERAHRGEKPHGCSLCGKAFYKR
protein stability index (parent: IOH7272_38, c terminus: a fixed tail appended): 2.1

HIKLHSGEKPFKCHLCNYACRRRD
protein stability index (parent: IOH9679_28, c terminus: a fixed tail appended): 1.92

AVLAASSPYFHDQVLLKGMTSISL
protein stability index (parent: IOH10718_13, c terminus: a fixed tail appended): 2.63

AFGWFRCSSCQRSWASAQVQILCH
protein stability index (parent: IOH10686_9, c terminus: a fixed tail appended): 2.29

FRFAPNHTKELEDKVIELHKSHRG
protein stability index (parent: IOH6638_43, c terminus: a fixed tail appended): 2.13

KSPIAPCSLDKRVILIFHCEFSSE
protein stability index (parent: IOH6456_79, c terminus: a fixed tail appended): 2.62

TYECRCIGEEKEMWNFGEKYARF [TIA1 WT]
protein stability index (parent: IOH10042_33, c terminus: native): 1.9

LQRVLEHRRRNQLIKKKKEELEAK
protein stability index (parent: IOH10203_12, c terminus: a fixed tail appended): 3.41

FCDMDKSLLCLLCSNSQEHGAHKH
protein stability index (parent: IOH10304_18, c terminus: a fixed tail appended): 1.87

SMQCKVILLDGSEYTCDVEKRSRG
protein stability index (parent: IOH6638_19, c terminus: a fixed tail appended): 2.79

IAKHLKGRLGKQCRERWHNHLNPE
protein stability index (parent: IOH6886_19, c terminus: a fixed tail appended): 1.82

MTKAQESLTLEDVAVDFTWEEWQF
protein stability index (parent: IOH7272_1, c terminus: a fixed tail appended): 3.04

REQADSCREQLDIMNDLSNRVWSI
protein stability index (parent: IOH6488_25, c terminus: a fixed tail appended): 2.18

LTEHKRIHTGKKPHVCSLCGKAFY
protein stability index (parent: IOH7272_33, c terminus: a fixed tail appended): 2.52

NNSWIRKNSTMVNSEDIFLLLCLK
protein stability index (parent: IOH10304_60, c terminus: a fixed tail appended): 2.69

AVNLSVSTLPSLREEEEQVRAHAP
protein stability index (parent: IOH6461_41, c terminus: a fixed tail appended): 5.01

TYWEHWTSQGQVRMRLFGQRCQKC
protein stability index (parent: IOH10686_13, c terminus: a fixed tail appended): 1.83

FLRGPSGPRFGPRNDKIKHVQNQV
protein stability index (parent: IOH7463_7, c terminus: a fixed tail appended): 2.7

DECEKAYFYMSCLVKHKRIHSREK
protein stability index (parent: IOH7272_73, c terminus: a fixed tail appended): 2.53

RAQMIRNEYRKLHPVLHKEEKQHL
protein stability index (parent: IOH10304_30, c terminus: a fixed tail appended): 3.05

YQEIFQQLQRSWVKMDQKSKHLKE
protein stability index (parent: IOH10304_35, c terminus: a fixed tail appended): 2.05

MYKLSSEQFHEAASKMESTIKPRR [CHCHD6 WT]
protein stability index (parent: IOH6589_29, c terminus: a fixed tail appended): 3.65

NRFRVEISFHFEVTNHNIRLFEDV
protein stability index (parent: IOH10304_48, c terminus: a fixed tail appended): 2.93

YARTPTLDPDTMHARLRLSADRLT
protein stability index (parent: IOH6488_45, c terminus: a fixed tail appended): 2.62

DMRDPTYRPLKQELQGLDYCKPTR [SPSB1 WT]
protein stability index (parent: IOH10100_3, c terminus: a fixed tail appended): 3.17

FSPSQFLNFWNKQDTLELESPSLT
protein stability index (parent: IOH6886_76, c terminus: a fixed tail appended): 2.12

KKFLTLGSKFRYSGRTQAQTRRAS
protein stability index (parent: IOH6638_67, c terminus: a fixed tail appended): 2.96

FSSSSQEAFAASAVGSGERRGGGP
protein stability index (parent: IOH10718_37, c terminus: a fixed tail appended): 3.33

KSCQACRLRKCYEVGMVKCGSRRE [ESR2 WT]
protein stability index (parent: IOH10714_34, c terminus: a fixed tail appended): 1.85

LFVTVTAVNLSVSTLPSLREEEEQ
protein stability index (parent: IOH6461_40, c terminus: a fixed tail appended): 2.13

FPNRTDQQCQYRWLRVLNPDLVKG
protein stability index (parent: IOH6886_11, c terminus: a fixed tail appended): 2.01

FVEDSFDPNINPTIGASFMTKTVQ [RAB22A WT]
protein stability index (parent: IOH10004_5, c terminus: a fixed tail appended): 2.26

FVDILESDLKDDDAVPPGMESLIS
protein stability index (parent: IOH6456_46, c terminus: a fixed tail appended): 3.07

QARLRDVSRREGALGWAPAAPPPL
protein stability index (parent: IOH6801_33, c terminus: a fixed tail appended): 3.31

YQAGKPDALTKLEQGEPLWTLEDE
protein stability index (parent: IOH7272_9, c terminus: a fixed tail appended): 4.34

FLRQLPFRGDDGIFDDNFIEERKQ [SNX3 WT]
protein stability index (parent: IOH7529_17, c terminus: a fixed tail appended): 3.4

SDYISEFRFAPNHTKELEDKVIEL
protein stability index (parent: IOH6638_42, c terminus: a fixed tail appended): 2.07
